How the values were obtained:
Jak2 = Jak2 (UniProt O60674); test: phosphorylation enrichment, bacterial display (enrichment ratio); higher = better substrate or ligand; peptides without Tyr show the background
c-Src = test: as above
AncSZ = test: as above
Fyn = Fyn (UniProt P06241); test: as above
Fer (mouse) = test: as above
FGFR1 = FGFR1 (UniProt P11362); test: as above
EPHB2 = EPHB2 (UniProt P29323); test: as above
MERTK = MERTK (UniProt Q12866); test: as above
c-Abl (mouse) = test: as above
EPHB1 = EPHB1 (UniProt P54762); test: as above
Hck = Hck (UniProt P08631); test: as above
Sequence of Hck (P08631 whole entry, looked up): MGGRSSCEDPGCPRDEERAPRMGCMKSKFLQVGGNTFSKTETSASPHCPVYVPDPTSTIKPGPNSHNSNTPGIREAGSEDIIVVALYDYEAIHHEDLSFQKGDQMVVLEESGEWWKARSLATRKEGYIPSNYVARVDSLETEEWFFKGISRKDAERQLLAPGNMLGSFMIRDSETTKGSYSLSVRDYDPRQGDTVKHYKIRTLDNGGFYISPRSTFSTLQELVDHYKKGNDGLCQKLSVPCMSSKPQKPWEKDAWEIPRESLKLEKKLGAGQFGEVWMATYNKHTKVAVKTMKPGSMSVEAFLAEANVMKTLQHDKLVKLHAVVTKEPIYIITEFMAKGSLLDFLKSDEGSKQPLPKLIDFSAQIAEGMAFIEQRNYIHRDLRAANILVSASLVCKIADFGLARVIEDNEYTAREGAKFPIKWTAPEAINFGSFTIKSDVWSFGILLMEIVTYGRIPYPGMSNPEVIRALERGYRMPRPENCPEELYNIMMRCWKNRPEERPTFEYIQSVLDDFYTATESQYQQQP

FGFR3 = FGFR3 (UniProt P22607); test: as above
Fes = Fes (UniProt P07332); test: as above
Sequence of Fes (P07332 whole entry, looked up): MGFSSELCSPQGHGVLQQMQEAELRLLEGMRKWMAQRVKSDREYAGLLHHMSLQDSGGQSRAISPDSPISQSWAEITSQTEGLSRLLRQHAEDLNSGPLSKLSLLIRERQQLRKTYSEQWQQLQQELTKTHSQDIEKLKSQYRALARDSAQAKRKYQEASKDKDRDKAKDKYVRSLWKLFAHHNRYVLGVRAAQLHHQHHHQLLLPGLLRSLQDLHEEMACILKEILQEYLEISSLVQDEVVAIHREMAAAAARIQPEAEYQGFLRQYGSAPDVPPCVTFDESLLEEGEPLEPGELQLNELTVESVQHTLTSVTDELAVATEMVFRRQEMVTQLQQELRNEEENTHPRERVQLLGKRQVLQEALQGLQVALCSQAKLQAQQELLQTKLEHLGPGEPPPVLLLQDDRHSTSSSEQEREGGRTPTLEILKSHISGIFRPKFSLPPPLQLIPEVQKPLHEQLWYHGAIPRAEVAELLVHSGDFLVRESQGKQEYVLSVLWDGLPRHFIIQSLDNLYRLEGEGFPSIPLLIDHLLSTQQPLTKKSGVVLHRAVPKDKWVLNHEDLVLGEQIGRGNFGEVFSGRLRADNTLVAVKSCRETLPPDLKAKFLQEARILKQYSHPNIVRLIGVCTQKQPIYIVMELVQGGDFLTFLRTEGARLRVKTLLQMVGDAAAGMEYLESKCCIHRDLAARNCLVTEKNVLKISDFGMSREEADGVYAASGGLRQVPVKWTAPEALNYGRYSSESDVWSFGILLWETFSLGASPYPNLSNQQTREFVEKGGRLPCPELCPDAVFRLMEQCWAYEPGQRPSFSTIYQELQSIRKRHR

SHP2-C SH2 = test: SH2 binding enrichment of the phosphorylated peptide, bacterial display (enrichment ratio); higher = better substrate or ligand; peptides without Tyr show the background
Grb2 SH2 = Grb2 SH2 (UniProt P62993); test: as above
Sequence of Grb2 SH2 (P62993 whole entry, looked up): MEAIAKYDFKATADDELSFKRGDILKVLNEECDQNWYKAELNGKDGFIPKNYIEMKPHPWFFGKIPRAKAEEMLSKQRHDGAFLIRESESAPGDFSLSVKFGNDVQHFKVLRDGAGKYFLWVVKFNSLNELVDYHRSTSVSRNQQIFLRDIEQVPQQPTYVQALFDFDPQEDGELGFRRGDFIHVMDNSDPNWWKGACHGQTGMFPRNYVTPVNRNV

c-Src SH2 = test: as above
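For SH2 binding enrichment of the phosphorylated peptide, bacterial display in this document: peptide library displayed on the E. coli surface as eCPX fusions, selected cells deep-sequenced, score is each peptide's frequency after selection divided by its frequency in the input.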
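For phosphorylation enrichment, bacterial display in this document: 11-residue human phosphosite peptides and single-mutation variants displayed on the E. coli surface, counted by deep sequencing, each peptide's frequency after selection divided by its frequency in the unselected input library; frequency after pTyr selection over input frequency; kinase dosed for 20-30% of maximal phosphorylation in three min.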

Sequence of FGFR1 (P11362 whole entry, looked up): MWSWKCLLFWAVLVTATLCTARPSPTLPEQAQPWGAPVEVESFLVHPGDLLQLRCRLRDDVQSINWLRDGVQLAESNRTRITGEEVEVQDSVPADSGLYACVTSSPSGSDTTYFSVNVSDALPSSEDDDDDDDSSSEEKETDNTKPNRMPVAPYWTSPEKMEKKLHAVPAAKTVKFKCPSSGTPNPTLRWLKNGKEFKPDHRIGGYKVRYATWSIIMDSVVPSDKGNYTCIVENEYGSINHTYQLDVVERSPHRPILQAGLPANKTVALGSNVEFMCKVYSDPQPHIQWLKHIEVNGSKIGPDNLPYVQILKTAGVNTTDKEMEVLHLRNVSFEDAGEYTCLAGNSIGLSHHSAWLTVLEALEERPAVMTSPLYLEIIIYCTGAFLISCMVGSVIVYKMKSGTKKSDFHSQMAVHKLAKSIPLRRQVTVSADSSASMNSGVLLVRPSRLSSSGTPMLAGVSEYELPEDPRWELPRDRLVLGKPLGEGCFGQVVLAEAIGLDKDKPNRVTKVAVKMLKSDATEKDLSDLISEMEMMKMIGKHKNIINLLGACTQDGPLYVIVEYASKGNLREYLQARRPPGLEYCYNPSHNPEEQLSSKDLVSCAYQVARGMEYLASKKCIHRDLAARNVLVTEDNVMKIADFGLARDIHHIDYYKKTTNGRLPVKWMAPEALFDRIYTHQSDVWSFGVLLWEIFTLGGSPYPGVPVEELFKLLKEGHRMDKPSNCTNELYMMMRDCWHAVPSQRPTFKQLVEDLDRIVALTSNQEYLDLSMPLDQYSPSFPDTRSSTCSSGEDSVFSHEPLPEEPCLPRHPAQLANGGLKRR
Sequence of EPHB2 (P29323 whole entry, looked up): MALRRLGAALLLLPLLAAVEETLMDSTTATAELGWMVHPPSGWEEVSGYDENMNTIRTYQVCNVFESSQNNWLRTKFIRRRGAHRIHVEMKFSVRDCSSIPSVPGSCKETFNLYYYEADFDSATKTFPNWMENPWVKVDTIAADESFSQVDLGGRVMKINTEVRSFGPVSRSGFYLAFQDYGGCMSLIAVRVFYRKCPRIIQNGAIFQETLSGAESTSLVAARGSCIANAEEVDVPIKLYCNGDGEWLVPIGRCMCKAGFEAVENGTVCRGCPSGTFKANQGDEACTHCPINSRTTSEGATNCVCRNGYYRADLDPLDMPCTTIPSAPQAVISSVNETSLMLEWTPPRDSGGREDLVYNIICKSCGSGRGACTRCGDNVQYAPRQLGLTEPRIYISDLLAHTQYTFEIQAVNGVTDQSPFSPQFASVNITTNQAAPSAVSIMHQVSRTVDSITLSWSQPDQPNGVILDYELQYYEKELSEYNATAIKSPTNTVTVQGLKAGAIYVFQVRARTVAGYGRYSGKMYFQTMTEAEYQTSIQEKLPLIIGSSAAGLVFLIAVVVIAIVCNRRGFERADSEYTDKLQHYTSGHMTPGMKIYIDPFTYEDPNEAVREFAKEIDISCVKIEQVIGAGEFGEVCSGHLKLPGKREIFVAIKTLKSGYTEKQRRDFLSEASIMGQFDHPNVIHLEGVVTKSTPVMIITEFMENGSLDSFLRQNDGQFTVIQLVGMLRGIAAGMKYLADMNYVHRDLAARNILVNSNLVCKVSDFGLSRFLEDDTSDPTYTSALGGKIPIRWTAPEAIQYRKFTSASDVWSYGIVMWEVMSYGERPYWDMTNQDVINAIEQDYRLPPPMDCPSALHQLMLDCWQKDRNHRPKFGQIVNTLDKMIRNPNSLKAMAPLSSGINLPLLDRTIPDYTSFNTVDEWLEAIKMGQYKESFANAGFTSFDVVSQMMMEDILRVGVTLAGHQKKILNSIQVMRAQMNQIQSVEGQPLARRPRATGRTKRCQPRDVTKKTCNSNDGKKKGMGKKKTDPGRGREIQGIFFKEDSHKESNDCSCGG
Sequence of Jak2 (O60674 whole entry, looked up): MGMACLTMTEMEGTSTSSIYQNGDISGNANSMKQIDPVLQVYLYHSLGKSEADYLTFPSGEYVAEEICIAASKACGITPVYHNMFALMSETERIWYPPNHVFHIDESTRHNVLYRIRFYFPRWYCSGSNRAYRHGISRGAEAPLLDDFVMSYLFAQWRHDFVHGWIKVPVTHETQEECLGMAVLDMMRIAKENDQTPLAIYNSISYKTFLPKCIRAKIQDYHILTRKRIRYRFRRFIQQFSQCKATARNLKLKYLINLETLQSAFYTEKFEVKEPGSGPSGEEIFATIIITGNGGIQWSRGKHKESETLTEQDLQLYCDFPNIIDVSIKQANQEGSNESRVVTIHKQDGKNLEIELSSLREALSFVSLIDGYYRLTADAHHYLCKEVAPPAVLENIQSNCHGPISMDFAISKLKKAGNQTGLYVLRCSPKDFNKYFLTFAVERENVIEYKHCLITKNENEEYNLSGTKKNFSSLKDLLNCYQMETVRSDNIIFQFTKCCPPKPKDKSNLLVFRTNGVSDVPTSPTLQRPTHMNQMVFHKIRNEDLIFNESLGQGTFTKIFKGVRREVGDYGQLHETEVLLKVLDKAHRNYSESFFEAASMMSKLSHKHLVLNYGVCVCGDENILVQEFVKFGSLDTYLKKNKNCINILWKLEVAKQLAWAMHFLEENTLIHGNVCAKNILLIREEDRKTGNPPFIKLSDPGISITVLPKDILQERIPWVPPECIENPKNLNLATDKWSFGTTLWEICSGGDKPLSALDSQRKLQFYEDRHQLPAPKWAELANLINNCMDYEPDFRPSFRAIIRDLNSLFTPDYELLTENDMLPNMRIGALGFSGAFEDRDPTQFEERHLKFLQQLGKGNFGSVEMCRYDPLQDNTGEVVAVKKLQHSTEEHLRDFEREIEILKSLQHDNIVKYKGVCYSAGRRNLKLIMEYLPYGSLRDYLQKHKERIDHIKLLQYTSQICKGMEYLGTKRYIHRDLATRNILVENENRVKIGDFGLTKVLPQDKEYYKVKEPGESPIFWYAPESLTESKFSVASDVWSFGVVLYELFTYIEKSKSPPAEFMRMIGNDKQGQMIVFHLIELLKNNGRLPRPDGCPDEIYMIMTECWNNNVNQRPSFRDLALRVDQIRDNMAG

Row | Sequence | phosphorylation enrichment (Jak2) | phosphorylation enrichment (c-Src) | phosphorylation enrichment (AncSZ) | phosphorylation enrichment (Fyn) | phosphorylation enrichment (Fer (mouse)) | phosphorylation enrichment (FGFR1) | phosphorylation enrichment (EPHB2) | phosphorylation enrichment (MERTK) | phosphorylation enrichment (c-Abl (mouse)) | phosphorylation enrichment (EPHB1) | phosphorylation enrichment (Hck) | phosphorylation enrichment (FGFR3) | phosphorylation enrichment (Fes) | SH2 binding enrichment (SHP2-C SH2) | SH2 binding enrichment (Grb2 SH2) | SH2 binding enrichment (c-Src SH2)
1 | KQRKEYMHRRQ [IQGAP2_Y710] | 0.636 | 0.518 | 0.696 | 0.477 | 0.437 | 0.375 | 0.444 | 0.452 | 0.649 | 0.551 | 0.526 | 0.519 | 0.715 | 0.392 | 0.78 | 0.447
2 | KSLFHHRQYSA [CPS1_Y1491_Y1491H] | 0.555 | 0.478 | 0.573 | 0.519 | 0.439 | 0.563 | 0.491 | 0.472 | 0.504 | 1.04 | 0.488 | 0.412 | 0.547 | 0.613 | 0.618 | 0.341
3 | KSMSVYCTPNK [ATP2A2_Y497] | 0.581 | 0.455 | 1.13 | 0.699 | 0.509 | 0.473 | 0.702 | 0.653 | 1.38 | 0.696 | 1 | 0.632 | 0.94 | 0.686 | 1.08 | 0.948
4 | KWTVDYLGQVG [TYW5_Y48_S50G] | 0.845 | 0.392 | 0.913 | 0.46 | 0.405 | 0.531 | 0.444 | 0.336 | 0.621 | 0.515 | 0.487 | 0.602 | 0.774 | 0.918 | 1.04 | 0.494
5 | KYVVVYFRETD [IL17RB_Y447_I451T] | 1.27 | 0.491 | 1.36 | 0.43 | 0.564 | 0.459 | 0.554 | 0.445 | 0.762 | 0.757 | 0.579 | 0.708 | 1.34 | 6.88 | 2.28 | 1.7
6 | LADKPYTFEFF [FXN_Y118_D122Y_YF] | 1.58 | 2.87 | 1.78 | 1.47 | 1.25 | 0.649 | 0.683 | 1.22 | 1.19 | 0.764 | 0.644 | 0.952 | 1.82 | 0.719 | 0.742 | 0.675
7 | LDPDSYNKFEN [FOXC1_Y159_M161K] | 1.52 | 1.02 | 1.54 | 0.665 | 0.483 | 0.765 | 0.656 | 0.802 | 1.25 | 0.758 | 0.698 | 0.97 | 1.69 | 0.838 | 0.681 | 0.409
8 | LDTFIYDAAVL [GRIN2A_Y730_A727T] | 1.4 | 7.94 | 1.97 | 7.61 | 16.9 | 0.827 | 2.05 | 2.94 | 7.38 | 1.68 | 8.1 | 0.991 | 1.65 | 0.921 | 0.785 | 0.767
9 | LEAVSYSSPYA [RNLS_Y190_R193P] | 1.51 | 1.12 | 1.81 | 0.864 | 0.714 | 0.697 | 0.936 | 0.627 | 2.02 | 0.818 | 1.07 | 0.987 | 1.03 | 1.84 | 0.826 | 2.86
10 | LENQTYFKSFE [AKAP9_Y2482] | 1.13 | 0.579 | 1.59 | 1.08 | 0.67 | 0.956 | 1.24 | 0.81 | 0.872 | 1.24 | 1.22 | 0.903 | 1.33 | 0.518 | 0.978 | 0.569
11 | LENSTYQFIRV [CRB1_Y760_YF] | 0.946 | 3.85 | 1.36 | 2.87 | 15.8 | 5.63 | 1.75 | 4.96 | 1.18 | 5.79 | 7.9 | 3.21 | 1.52 | 0.622 | 0.607 | 0.546
12 | LENSTYQYICV [CRB1_Y760_R764C] | 2.13 | 3.5 | 3.88 | 4.96 | 15.4 | 14.1 | 8.2 | 6.83 | 1.61 | 11.9 | 5.89 | 8.35 | 2.41 | 0.526 | 0.715 | 0.522
13 | LERFIYNREEL [HLA-DPB1_Y59_F64L_YF] | 1.54 | 2.42 | 1.5 | 1.19 | 0.669 | 0.666 | 0.734 | 0.694 | 1.11 | 0.698 | 1.5 | 0.75 | 1.3 | 0.85 | 1.2 | 0.703
14 | LERFIYNRQEF [HLA-DPB1_Y59_E62Q_YF] | 0.629 | 0.859 | 0.766 | 0.551 | 0.427 | 0.491 | 0.551 | 0.357 | 0.464 | 0.436 | 0.77 | 0.532 | 0.87 | 0.783 | 1.03 | 0.566
15 | LERYIYNPEEF [HLA-DPB1_Y59_R61P] | 2.66 | 3.71 | 1.48 | 2.16 | 0.85 | 0.875 | 0.965 | 0.682 | 1.32 | 0.783 | 1.56 | 0.902 | 1.74 | 0.851 | 0.866 | 0.677
16 | LESETYRRLLD [KRT12_Y429_I426S] | 1.07 | 0.517 | 1.44 | 0.684 | 0.708 | 0.784 | 0.836 | 0.664 | 0.778 | 0.75 | 0.697 | 1.02 | 1.66 | 0.911 | 0.915 | 0.429
17 | LESILYESSVV [TRPV4_Y91_T89I] | 1.23 | 1.14 | 1.65 | 1.22 | 7.52 | 0.725 | 0.719 | 0.678 | 1.01 | 0.607 | 1.65 | 0.825 | 1.39 | 0.732 | 0.86 | 0.613

Reference: the supplement of paper PMC10065799, “High-throughput profiling of sequence recognition by tyrosine kinases and SH2 domains using bacterial peptide display” (eLife, 2023)
